{"source": "patent US9333268B2", "about": "“Methods of treatment with arginine deiminase” (Polaris Group, priority 2012, dated 2016)", "key": {"NCI-H69 xenografts": {"system": "NCI-H69 xenografts", "assay": "ASS-positive NCI-H69 SCLC xenografts in BALB/c-nude mice", "format": "in vivo", "settings": "five doses of 2 IU over 20 days, intraperitoneal", "method": "The activity of ADI-PEG 20 was also assessed in mice bearing ASS-positive NCI-H69 SCLC xenografts. Small cell lung cancer xenografts were established in female BALB/c-nude mice, 3-4 weeks of age weighing ˜20 g (Charles River Labs, Wilmington, Mass., USA). To establish the tumors, 10×10^6 cells in media were mixed 1:1 with Matrigel High Concentration (BD Biosciences) and injected subcutaneously in the abdominal area of the mice. Tumor growth was regularly measured and tumor volume calculated using the formula (TV=(length×width^2)/2). All animal studies were approved by the MSKCC Institutional Animal Care and Use Committee. Mice were euthanized when tumors reached an approximate volume of 1,000 mm^3.\nThe anti-tumor efficacy of ADI-PEG 20 was simultaneously assessed in mice bearing either moderate or large SK-LC-13 SCLC xenografts. In the first study, treatment was initiated once tumors had reached an average size of 125 mm^3. In the large xenograft study, treatment was initiated once tumors had reached an average size of 500 mm^3. Arginine deiminase-PEG20 was administered at doses of 1, 2 and 5 IU per animal once every 5 days for 20 days (five doses). […] Additionally, the efficacy of ADI-PEG 20 was assessed in mice bearing ASS-positive NCI-H69 xenografts. […]"}, "SK-LC-13 cells": {"system": "SK-LC-13 cells", "assay": "FACS analysis of apoptosis by sub-G1 DNA content (propidium iodide)", "format": "cell-based, human", "method": "Apoptosis was measured by FACS of propidium-iodide-stained cells as detailed by Riccardi et al (Riccardi and Nicoletti, Nat Protoc 1(3):1458-1461, 2006). Cells were plated in 24-well plates and treated with ADI-PEG 20 for […]. Cells were then harvested, washed and fixed in 70% ethanol. DNA was then stained using 20 μg ml^−1 propidium iodide containing 10 μgml^−1 DNAse-free RNAse A (Sigma-Aldrich). Cells were then read on a BD FACSCalibur (BD Biosciences) and analyzed using Flow Jo Software (Tree Star, Ashland, Oreg., USA).\nIn order to determine the possible mechanism of the antiproliferative effects of ADI-PEG 20 a FACS analysis of apoptosis by sub-G1 DNA content was performed. Cells were treated for 72 h before the analysis was performed."}}, "data": [{"molecule": "ADI-PEG 20: arginine deiminase (ADI) formulated with PEG of 20,000 m.w. (protein) MSVFDSKFNGIHVYSEIGELETVLVHEPGREIDYITPARLDELLFSAILESHDARKEHQSFVKIMKDRGINVVELTDLVAETYDLASKAAKEEFIETFLEETVPVLTEANKEAVRAFLLSKPTHEMVEFMMSGITKYELGVESENELIVDPMPNLYFTRDPFASVGNGVTIHFMRYIVRRRETLFARFVFRNHPKLVKTPWYYDPAMKMSIEGGDVFIYNNETLVVGVSERTDLDTITLLAKNIKANKEVEFKRIVAINVPKWTNLMHLDTWLTMLDKNKFLYSPIANDVFKFWDYDLVNGGAEPQPQLNGLPLDKLLASIINKEPVLIPIGGAGATEMEIARETNFDGTNYLAIKPGLVIGYDRNEKTNAALKAAGITVLPFHGNQLSLGMGNARCMSMPLSRKDVKW", "values": [{"measurement": "tumor growth", "setting": "NCI-H69 xenografts", "result": "did not produce any effect on tumor growth"}, {"measurement": "cells in apoptosis (sub-G1 DNA content)", "setting": "SK-LC-13 cells; 1.0 mIU ml^−1, 72 h", "result": "~6", "unit": "%"}, {"measurement": "cells in apoptosis (sub-G1 DNA content)", "setting": "SK-LC-13 cells; 10 mIU ml^−1, 72 h", "result": "~16", "unit": "%"}]}]}
